To fix the notation:
B1: Serine/threonine-protein kinase PAK 5 (Homo sapiens), Q9P286 (parent)
chain: MFGKKKKKIEISGPSNFEHRVHTGFDPQEQKFTGLPQQWHSLLADTANRPKPMVDPSCITPIQLAPMKTIVRGNKPCKETSINGLLEDFDNISVTRSNSLRKESPPTPDQGASSHGPGHAEENGFITFSQYSSESDTTADYTTEKYREKSLYGDDLDPYYRGSHAAKQNGHVMKMKHGEAYYSEVKPLKSDFARFSADYHSHLDSLSKPSEYSDLKWEYQRASSSSPLDYSFQFTPSRTAGTSGCSKESLAYSESEWGPSLDDYDRRPKSSYLNQTSPQPTMRQRSRSGSGLQEPMMPFGASAFKTHPQGHSYNSYTYPRLSEPTMCIPKVDYDRAQMVLSPPLSGSDTYPRGPAKLPQSQSKSGYSSSSHQYPSGYHKATLYHHPSLQSSSQYISTASYLSSLSLSSSTYPPPSWGSSSDQQPSRVSHEQFRAALQLVVSPGDPREYLANFIKIGEGSTGIVCIATEKHTGKQVAVKKMDLRKQQRRELLFNEVVIMRDYHHDNVVDMYSSYLVGDELWVVMEFLEGGALTDIVTHTRMNEEQIATVCLSVLRALSYLHNQGVIHRDIKSDSILLTSDGRIKLSDFGFCAQVSKEVPKRKSLVGTPYWMAPEVISRLPYGTEVDIWSLGIMVIEMIDGEPPYFNEPPLQAMRRIRDSLPPRVKDLHKVSSVLRGFLDLMLVREPSQRATAQELLGHPFLKLAGPPSCIVPLMRQYRHH
partner: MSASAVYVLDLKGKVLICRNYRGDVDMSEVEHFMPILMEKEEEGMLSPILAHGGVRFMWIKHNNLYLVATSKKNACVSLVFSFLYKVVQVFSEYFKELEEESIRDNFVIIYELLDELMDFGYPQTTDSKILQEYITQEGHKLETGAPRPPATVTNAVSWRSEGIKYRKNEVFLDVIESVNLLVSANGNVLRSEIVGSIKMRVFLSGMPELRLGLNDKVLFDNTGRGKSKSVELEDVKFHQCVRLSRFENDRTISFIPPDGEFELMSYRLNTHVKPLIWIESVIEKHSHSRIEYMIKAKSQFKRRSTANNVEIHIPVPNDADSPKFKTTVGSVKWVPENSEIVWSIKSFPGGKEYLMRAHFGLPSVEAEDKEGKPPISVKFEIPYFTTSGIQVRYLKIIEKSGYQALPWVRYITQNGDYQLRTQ
B2: EKC/KEOPS complex subunit TP53RK (Homo sapiens), Q96S44 (parent)
chain: MAAARATTPADGEEPAPEAEALAAARERSSRFLSGLELVKQGAEARVFRGRFQGRAAVIKHRFPKGYRHPALEARLGRRRTVQEARALLRCRRAGISAPVVFFVDYASNCLYMEEIEGSVTVRDYIQSTMETEKTPQGLSNLAKTIGQVLARMHDEDLIHGDLTTSNMLLKPPLEQLNIVLIDFGLSFISALPEDKGVDLYVLEKAFLSTHPNTETVFEAFLKSYSTSSKKARPVLKKLDEVRLRGRKRSMVG
B3: Alpha-taxilin (Homo sapiens), P40222 (parent)
chain: MKNQDKKNGAAKQSNPKSSPGQPEAGPEGAQERPSQAAPAVEAEGPGSSQAPRKPEGAQARTAQSGALRDVSEELSRQLEDILSTYCVDNNQGGPGEDGAQGEPAEPEDAEKSRTYVARNGEPEPTPVVNGEKEPSKGDPNTEEIRQSDEVGDRDHRRPQEKKKAKGLGKEITLLMQTLNTLSTPEEKLAALCKKYAELLEEHRNSQKQMKLLQKKQSQLVQEKDHLRGEHSKAVLARSKLESLCRELQRHNRSLKEEGVQRAREEEEKRKEVTSHFQVTLNDIQLQMEQHNERNSKLRQENMELAERLKKLIEQYELREEHIDKVFKHKDLQQQLVDAKLQQAQEMLKEAEERHQREKDFLLKEAVESQRMCELMKQQETHLKQQLALYTEKFEEFQNTLSKSSEVFTTFKQEMEKMTKKIKKLEKETTMYRSRWESSNKALLEMAEEKTVRDKELEGLQVKIQRLEKLCRALQTERNDLNKRVQDLSAGGQGSLTDSGPERRPEGPGAQAPSSPRVTEAPCYPGAPSTEASGQTGPQEPTSARA
partner: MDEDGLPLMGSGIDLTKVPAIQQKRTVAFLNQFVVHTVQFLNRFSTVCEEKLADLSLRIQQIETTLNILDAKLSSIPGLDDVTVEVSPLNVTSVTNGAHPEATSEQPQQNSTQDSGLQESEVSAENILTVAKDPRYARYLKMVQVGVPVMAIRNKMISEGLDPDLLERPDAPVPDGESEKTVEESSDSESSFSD
B4: Homeobox protein VENTX (Homo sapiens), O95231 (parent)
chain: MRLSSSPPRGPQQLSSFGSVDWLSQSSCSGPTHTPRPADFSLGSLPGPGQTSGAREPPQAVSIKEAAGSSNLPAPERTMAGLSKEPNTLRAPRVRTAFTMEQVRTLEGVFQHHQYLSPLERKRLAREMQLSEVQIKTWFQNRRMKHKRQMQDPQLHSPFSGSLHAPPAFYSTSSGLANGLQLLCPWAPLSGPQALMLPPGSFWGLCQVAQEALASAGASCCGQPLASHPPTPGRPSLGPALSTGPRGLCAMPQTGDAF
partner: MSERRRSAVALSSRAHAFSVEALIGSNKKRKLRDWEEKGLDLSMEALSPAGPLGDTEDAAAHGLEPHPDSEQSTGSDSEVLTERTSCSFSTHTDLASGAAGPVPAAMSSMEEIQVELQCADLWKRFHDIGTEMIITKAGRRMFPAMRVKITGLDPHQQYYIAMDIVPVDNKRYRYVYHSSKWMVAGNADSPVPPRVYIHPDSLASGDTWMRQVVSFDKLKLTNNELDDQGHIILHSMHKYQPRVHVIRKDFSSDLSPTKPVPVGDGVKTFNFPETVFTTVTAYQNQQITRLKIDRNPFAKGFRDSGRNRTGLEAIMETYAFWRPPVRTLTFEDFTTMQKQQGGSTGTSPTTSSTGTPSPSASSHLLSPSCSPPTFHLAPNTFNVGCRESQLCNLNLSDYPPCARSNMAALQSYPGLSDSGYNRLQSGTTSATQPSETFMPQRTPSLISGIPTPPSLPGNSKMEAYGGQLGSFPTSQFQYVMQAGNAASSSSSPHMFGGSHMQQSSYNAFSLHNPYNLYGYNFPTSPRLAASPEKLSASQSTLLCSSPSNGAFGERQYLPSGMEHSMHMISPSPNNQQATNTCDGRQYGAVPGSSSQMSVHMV
B5: Melanoma-associated antigen 8 (Homo sapiens), P43361 (parent)
chain: MLLGQKSQRYKAEEGLQAQGEAPGLMDVQIPTAEEQKAASSSSTLIMGTLEEVTDSGSPSPPQSPEGASSSLTVTDSTLWSQSDEGSSSNEEEGPSTSPDPAHLESLFREALDEKVAELVRFLLRKYQIKEPVTKAEMLESVIKNYKNHFPDIFSKASECMQVIFGIDVKEVDPAGHSYILVTCLGLSYDGLLGDDQSTPKTGLLIIVLGMILMEGSRAPEEAIWEALSVMGLYDGREHSVYWKLRKLLTQEWVQENYLEYRQAPGSDPVRYEFLWGPRALAETSYVKVLEHVVRVNARVRISYPSLHEEALGEEKGV
partner: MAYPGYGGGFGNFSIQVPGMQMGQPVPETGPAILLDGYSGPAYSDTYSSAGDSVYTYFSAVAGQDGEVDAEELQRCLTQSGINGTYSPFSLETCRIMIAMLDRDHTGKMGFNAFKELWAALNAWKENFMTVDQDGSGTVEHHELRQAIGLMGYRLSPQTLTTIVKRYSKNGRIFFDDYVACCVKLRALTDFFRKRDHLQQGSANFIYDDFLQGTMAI

In one test the parent is B1. Particulars: with ap1m1_human AP1M1, Q9BXS5.
Regarding V604I, the “effect of a mutation on the interaction” value was “with no effect”.

S511N: the “effect of a mutation on the interaction” value is given as “with no effect”.

Variants of B2 are the subject of another test. Particulars: with ccdb1_human CCNDBP1, O95273.
ccdb1_human CCNDBP1, O95273, sequence (O95273 whole entry): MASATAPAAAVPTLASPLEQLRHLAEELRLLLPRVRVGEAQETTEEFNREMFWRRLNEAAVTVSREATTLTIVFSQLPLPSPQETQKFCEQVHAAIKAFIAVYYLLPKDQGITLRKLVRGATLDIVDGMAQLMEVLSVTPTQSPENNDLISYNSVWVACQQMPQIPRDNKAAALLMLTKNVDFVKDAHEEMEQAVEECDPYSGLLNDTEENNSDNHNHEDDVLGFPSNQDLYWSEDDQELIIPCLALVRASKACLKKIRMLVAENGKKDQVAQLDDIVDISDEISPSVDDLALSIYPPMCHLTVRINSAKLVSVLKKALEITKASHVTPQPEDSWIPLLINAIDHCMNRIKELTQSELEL
For the variant T8M, the “effect of a mutation on the interaction” value is on record as “with no effect”.

On to R123Q, for which the “effect of a mutation on the interaction” value was “disrupting interaction strength”.

As to T129A, the “effect of a mutation on the interaction” value is given as “with no effect”.

Variants of B3 are the subject of a further test. Particulars: with wasc3_human WASHC3, Q9Y3C0.
For S514R, the “effect of a mutation on the interaction” value was “with no effect”.

As for P541S, the “effect of a mutation on the interaction” value is listed as “with no effect”.

Variants of B4 are the subject of the next test. Particulars: with tbx15_human TBX15, Q96SF7.
As to A226E, the “effect of a mutation on the interaction” value was “with no effect”.

Consider M251V, for which the “effect of a mutation on the interaction” value was “with no effect”.

For the variant L42P, the “effect of a mutation on the interaction” value is reported as “with no effect”.

The variants in the next test derive from B5. Particulars: with gran_human GCA.
Regarding R121H, the “effect of a mutation on the interaction” value was “with no effect”.

For the origin of these results see IntAct's records for PubMed 31515488.
